Consider one molecule from patent US6627739.

For one test, the target named is T1, β-secretase 46-452 (human, UniProt P56817 46-452).
T1 construct: C-terminally truncated form lacking the transmembrane region
The experiment in a line: binding to peptide-Sepharose affinity matrix. As to the method: The same fractions run under non-reducing conditions (FIG. 6B) provide evidence for disulfide cross-linked oligomers. When the anion exchange pool fractions 18–21 (see FIG. 6B) were treated with dithiothreitol (DTT) and re-chromatographed on a Mini Q column, then subjected to SDS-PAGE under non-reducing conditions, a single band running at about 70 kilodaltons was observed.
All manipulations were carried out at room temperature. 12.5 ml of 80% slurry of NHS-Sepharose (i.e. 10 ml packed volume; Pharmnacia, Piscataway, N.J.) was poured into a Bio-Rad EconoColumn (BioRad, Richmond, Calif.) and washed with 165 ml of ice-cold 1.0 mM HCl. When the bed was fully drained, the bottom of the column was closed off, and 5.0 ml of 7.0 mg/ml P10-P4'sta(D→V) peptide (dissolved in 0.1 M HEPES, pH 8.0) was added. The column was capped and incubated with rotation for 24 hours. After incubation, the column was allowed to drain, then washed with 8 ml of 1.0 M ethanolamine, pH 8.2. An additional 10 ml of the ethanolamine solution was added, and the column was again capped and incubated overnight with rotation. […]

Test [1] addresses T2, recombinant full-length human β-secretase (1-501) expressed from pCEK clone 27 / pCFβA2 in 293T or Cos A2 … (human, UniProt P56817 46-501).
T2 construct: From 293T cells the N-terminus was mainly residue 46, with minor forms at 22 and 63; From Cos A2 cells it was 46 and 58; also called p501 β-secretase; full length clone 27
Briefly: affinity chromatography on peptide-Sepharose, extracts of transfected 293T and COS A2 cells. How it is done: The cell pellet was resuspended by homogenizing for 30 seconds using a handheld homogenizer (0.5 ml/pellet of approximately […] in extraction buffer consisting of 20 mM TRIS buffer, pH 7.5, 2 mM EDTA, 0.2% Triton X-100, plus protease inhibitors: 5 µg/ml E-64, 10 µg/ml pepstatin, 1 mM PMSF), centrifuged as maximum speed in a microfuge (40 minutes at 4 degrees C.). Pellets were suspended in original volume of extraction buffer, then stirred at 1 hour at 4 degrees C. with rotation, and centrifuted again in a microfuge at maximum speed for 40 minutes. The resulting supernatant was saved as the "extract." The extract was then diluted with 20 mM sodium acetate, pH 5.0,2 mM EDTA and 0.2% Triton X-100 (SP buffer A), and 5M NaCl was added to a final concentration of 60 mM NaCl. The pH of the solution was then adjusted to pH 5.0 with glacial acetic acid diluted 1:10 in water. Aliquots were saved ("SP load"). The SP load was passed through a 1 ml SP HiTrap column which was pre-washed with 5 ml SP buffer A, 5 ml SP buffer B (SP buffer A with 1 M NaCl) and 10 ml SP buffer A. An additional 2 ml of 5% SP buffer B was passed through the column to displace any remaining sample from the column. The pH of the SP flow-through was adjusted to pH 4.5 with 10× diluted acetic acid. This flow-through was then applied to a P10-P4'staD→V-Sepharose Affinity column, as described below. […]

[ ]: non-standard residue; d: D form. Sta = CC(C)C[C@H](N)[C@@H](O)CC(=O)O

T2 sequence (P56817 46-501 limits assumed): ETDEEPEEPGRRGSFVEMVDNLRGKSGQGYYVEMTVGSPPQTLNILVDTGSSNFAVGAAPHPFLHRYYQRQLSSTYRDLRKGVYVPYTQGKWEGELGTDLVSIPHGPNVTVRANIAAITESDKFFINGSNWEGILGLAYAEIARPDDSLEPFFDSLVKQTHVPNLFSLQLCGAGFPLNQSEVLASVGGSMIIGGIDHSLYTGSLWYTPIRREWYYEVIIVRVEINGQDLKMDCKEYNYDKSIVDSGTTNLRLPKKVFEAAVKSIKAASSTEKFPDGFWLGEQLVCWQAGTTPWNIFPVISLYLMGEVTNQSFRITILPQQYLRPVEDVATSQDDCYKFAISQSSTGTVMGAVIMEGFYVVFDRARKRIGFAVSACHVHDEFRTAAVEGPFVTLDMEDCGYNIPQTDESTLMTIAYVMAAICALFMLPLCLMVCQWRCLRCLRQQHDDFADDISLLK
T1 sequence (P56817 46-452 limits assumed): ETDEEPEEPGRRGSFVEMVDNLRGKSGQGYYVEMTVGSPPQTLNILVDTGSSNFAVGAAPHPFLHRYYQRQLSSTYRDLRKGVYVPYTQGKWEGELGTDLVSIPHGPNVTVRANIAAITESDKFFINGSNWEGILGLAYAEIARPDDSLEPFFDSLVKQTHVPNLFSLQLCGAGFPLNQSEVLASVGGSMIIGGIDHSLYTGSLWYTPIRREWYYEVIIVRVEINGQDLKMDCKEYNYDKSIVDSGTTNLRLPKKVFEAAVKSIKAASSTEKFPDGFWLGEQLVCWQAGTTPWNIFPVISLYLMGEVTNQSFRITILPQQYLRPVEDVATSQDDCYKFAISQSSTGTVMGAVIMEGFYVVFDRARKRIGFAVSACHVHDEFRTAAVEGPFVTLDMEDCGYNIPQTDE

As to H-KTEEISEVN[Sta]VAEF-OH (also called P10-P4′(statine)D→V) [P10-P4′staD→V (NH2-KTEEISEVN[sta]VAEF-CO2H)], the binding result (with β-secretase 46-452; in test [1]) was “binds” in each case.
